Laboratory results: patent US8623997B2, “Variant Hhip1 protein and methods and uses thereof” (Curis, Inc., priority 2008, dated 2014)
Where a chain is given by its changes, count along the chain named. In names and notes the source's numbering stands.

B1: Hhip1β1: β-propeller-EGF1 construct (SEQ ID NO:13), residues 193-637 of SEQ ID NO:2 (protein, listed as Homo sapiens)
chain: SNYLDQMEEYDKVEEISRKHKHNCFCIQEVVSGLRQPVGALHSGDGSQRLFILEKEGYVKILTPEGEIFKEPYLDIHKLVQSGIKGGDERGLLSLAFHPNYKKNGKLYVSYTTNQERWAIGPHDHILRVVEYTVSRKNPHQVDLRTARVFLEVAELHRKHLGGQLLFGPDGFLYIILGDGMITLDDMEEMDGLSDFTGSVLRLDVDTDMCNVPYSIPRSNPHFNSTNQPPEVFAHGLHDPGRCAVDRHPTDININLTILCSDSNGKNRSSARILQIIKGKDYESEPSLLEFKPFSNGPLVGGFVYRGCQSERLYGSYVFGDRNGNFLTLQQSPVTKQWQEKPLCLGTSGSCRGYFSGHILGFGEDELGEVYILSSSKSMTQTHNGKLYKIVDPKRPLMPEECRATVQPAQTLTSECSRLCRNGYCTPTGKCCCSPGWEGDFCRTA
B2: D383A: L2 loop single alanine variant made in the Hhip1β12 construct (protein)
chain: SNYLDQMEEYDKVEEISRKHKHNCFCIQEVVSGLRQPVGALHSGDGSQRLFILEKEGYVKILTPEGEIFKEPYLDIHKLVQSGIKGGDERGLLSLAFHPNYKKNGKLYVSYTTNQERWAIGPHDHILRVVEYTVSRKNPHQVDLRTARVFLEVAELHRKHLGGQLLFGPDGFLYIILGDGMITLDDMEEMAGLSDFTGSVLRLDVDTDMCNVPYSIPRSNPHFNSTNQPPEVFAHGLHDPGRCAVDRHPTDININLTILCSDSNGKNRSSARILQIIKGKDYESEPSLLEFKPFSNGPLVGGFVYRGCQSERLYGSYVFGDRNGNFLTLQQSPVTKQWQEKPLCLGTSGSCRGYFSGHILGFGEDELGEVYILSSSKSMTQTHNGKLYKIVDPKRPLMPEECRATVQPAQTLTSECSRLCRNGYCTPTGKCCCSPGWEGDFCRTAKCEPACRHGGVCVRPNKCLCKKGYLGPQCEHHHHHH
B3: I312A: L1 loop single alanine variant made in the Hhip1β12 construct (protein)
chain: B2 chain with I120A, A191D
B4: Hhip1ΔL2: Hhip1β12 mutant with deletion of the entire L2 loop (protein)
chain: SNYLDQMEEYDKVEEISRKHKHNCFCIQEVVSGLRQPVGALHSGDGSQRLFILEKEGYVKILTPEGEIFKEPYLDIHKLVQSGIKGGDERGLLSLAFHPNYKKNGKLYVSYTTNQERWAIGPHDHILRVVEYTVSRKNPHQVDLRTARVFLEVAELHRKHLGGQLLFGPDGFLYIILGDGMITTGSVLRLDVDTDMCNVPYSIPRSNPHFNSTNQPPEVFAHGLHDPGRCAVDRHPTDININLTILCSDSNGKNRSSARILQIIKGKDYESEPSLLEFKPFSNGPLVGGFVYRGCQSERLYGSYVFGDRNGNFLTLQQSPVTKQWQEKPLCLGTSGSCRGYFSGHILGFGEDELGEVYILSSSKSMTQTHNGKLYKIVDPKRPLMPEECRATVQPAQTLTSECSRLCRNGYCTPTGKCCCSPGWEGDFCRTAKCEPACRHGGVCVRPNKCLCKKGYLGPQCEHHHHHH
B5: Hhip1ECD: Hhip1 extracellular domain construct (SEQ ID NO:11), residues 20-667 of SEQ ID NO:2 (protein, listed as Homo sapiens)
chain: SNYLDQMEEYDKVEEISRKHKHNCFCIQEVVSGLRQPVGALHSGDGSQRLFILEKEGYVKILTPEGEIFKEPYLDIHKLVQSGIKGGDERGLLSLAFHPNYKKNGKLYVSYTTNQERWAIGPHDHILRVVEYTVSRKNPHQVDLRTARVFLEVAELHRKHLGGQLLFGPDGFLYIILGDGMITLDDMEEMDGLSDFTGSVLRLDVDTDMCNVPYSIPRSNPHFNSTNQPPEVFAHGLHDPGRCAVDRHPTDININLTILCSDSNGKNRSSARILQIIKGKDYESEPSLLEFKPFSNGPLVGGFVYRGCQSERLYGSYVFGDRNGNFLTLQQSPVTKQWQEKPLCLGTSGSCRGYFSGHILGFGEDELGEVYILSSSKSMTQTHNGKLYKIVDPKRPLMPEECRATVQPAQTLTSECSRLCRNGYCTPTGKCCCSPGWEGDFCRTAKCEPACRHGGVCVRPNKCLCKKGYLGPQCE

Assays:
[1] = molecular target: T1, biotinylated-ShhN-Cys (Homo sapiens, UniProt Q15465); assay: Bio-layer interferometry (Octet) binding kinetics of Hhip1β12 variants to Shh; conditions: for Kd / koff × 10^−4 / kon × 10^3: 1:1 binding model, n.d stands for no binding detected; for Shh binding of Hhip1β12 mutants (in words): bio-layer interferometry, compared with WT Hhip1β12
T1 construct: ShhN-Cys (residues 24-197); His6 (N); made in house; host or cells: E. coli Rosetta 2
Experimental: The binding kinetics of the Hhip1β12 fragments as well as Hhip1β12 mutants were measured by bio-layer interferometry in the presence or absence of 10 mM EDTA on an Octet (Fortébio). Streptavidin high binding FA biosensors were loaded with biotinylated-ShhN-Cys in kinetic buffer (Fortébio). The loaded biosensors were washed and transferred to wells containing Hhip1β12 protein at concentrations of 1.2, 1.0, 0.8 and 0.6 μM in kinetic buffer. Hhip1β12 association and dissociation was measured for 30 and 20 min, respectively. Kinetic parameters (kon and koff) and affinities (KD) were calculated from a non-linear fit of the data based on a 1:1 binding model between Hhip1β12 and Shh using the Octet software. Multiple independent measurements were performed.
In order to assess the contribution of residues in the Hhip1 L1, L2 and L3 loops for binding to Shh, a series of single alanine Hipβ12 mutants were made using the QuickChange DNA mutagenesis kit (Stratagene) using the manufacturer's protocol, and their affinity for Shh was measured by bio-layer interferometry (as described in Example 2B). These mutations included Hhip1β12 mutants 1312A, E381A, M382A, D383A, D378A, T418A, Q420A, E380A, D387A and ΔL2.

[2] = system: Shh signaling; assay: Gli-luciferase co-culture signaling assay (S12 fibroblasts overlaid with Shh-producing HT29 cells); type: cell-based, murine S12 fibroblasts / human HT29 cells; conditions: for IC50: 24 hrs, read-out: IC50 inhibition of Shh signaling
Excerpt: Due to the lack of both N- and C-terminal lipid modifications of Shh and the absence of other cellular components, the in vitro assays may not fully recapitulate Hip-Shh interactions occurring in a cellular environment. Therefore, a co-culture assay consisting of murine S12 fibroblasts stably transfected with a Gli luciferase reporter gene and (Frank-Kamenetsky et al. (2002) J. Biol. 1:10) and human colorectal adenocarcinoma HT29 cells that secrete fully lipid-modified Shh (Yauch et al. (2008) Nature 455:406) was used to determine which extracellular domains of Hhip1β12 mediate inhibition of Shh signaling in mammalian cells.
Briefly, S12 cells, which are 10T1/2 fibroblasts stably transfected with 8× Gli-binding sites fused to a luciferase reporter (Frank-Kamenetsky et al. (2002) J. Biol. 1:10), were plated at 10,000 cells/well of a white-walled clear bottomed 96-well plate (Costar 3610) for […] in regular growth medium (HG-DMEM, 10% FBS, 1% glutamine). After 24 h, the media was removed and Shh-producing HT29 cells at 20,000 cells/well were plated and the co-culture was grown in regular media. After 24 h, the media was changed to 0.5% serum HG-DMEM±Hhip1β12 fragments and further incubated for 24 hrs to stimulate signaling. Gli-luciferase activity was measured using a HTS-Steady Lite luciferase detection kit (Perkin Elmer); multiple assays were carried out, each in triplicate. Data were fit to a 4-parameter sigmoidal equation, from which the IC50 was derived using Kaleidagraph (Synergy Software).

[3] = system: Ptch1; assay: FACS assay of Shh649 binding to Ptch1 expressing 293 cells and its competition; set-up: species or system human
Experimental: Shh649 (1 nM) preincubated with indicated proteins was bound to Ptch1 expressing cells, washed and analyzed by FACS. The average mean Shh649 fluorescence intensity (MFI) of two independent dilution series was plotted versus inhibitor concentration, with error bars denoting standard deviations. […] Assays were carried out using octylated Ihh wildtype and T154I proteins. Concentration dependent relative luciferase units (RLU) are plotted as the average of four independent dilution series±standard deviation and normalized to the maximal Ihh WT stimulation on each plate as 100%. […] The data is representative of three independent experiments.
Shh is in the same orientation as in the Hhip-Shh complex in Panel A. Zn^2+ and Ca^2+ cations are shown. […] Surface representation of Shh with residues within 4.5 Å of Hhip (shaded gray) and Cdon (hatched areas). Area within dotted boarder indicates the boundaries of the Cdon footprint, which overlaps the Hhip binding surface. […] Shh histidine residues are shown as sticks with nitrogen atoms shaded dark. The Hhip L2 loop is shown in transparent surface and Zn^2+ cation is shown. Histidine 35 is not shown since the ordered portion of the Shh structure begins at L40. […] The spectral region of the histidine side chains is shown. […] The average mean Shh649 fluorescence intensity (MFI) of two independent dilution series was plotted versus protein concentration, with error bars denoting standard deviations. Ctrl refers to the His-6 (SEQ ID NO: 87) tagged HGF β protein. […] Shh649 (0.33 nM) was preincubated with 56 nM (170-fold excess) of Hhipβ12 wildtype or L2 mutant proteins, 5E1 or controls then bound to Ptch1 cells (black) or 293 cells (gray), washed and analyzed by FACS. Shh649 binding to Ptch1 cells in the absence of inhibitors was normalized to 100% and the data expressed as a percentage of this signal (average of two independent duplicates with standard deviations). Ctrl and CtrlFc refer to HGF β and the IgG1 isotype control Trastuzumab, respectively. The data is representative of at least three independent experiments.
Shh649, conjugated to Dylight 649 (Pierce) at its C-terminus (vide supra), was incubated at 0.33 or 1 nM for 1 h on ice with various Hhip or control proteins prior to incubation with HEK-293 cells (293) or 293 cells expressing full length human Patched-1 (Ptch1-293 clone 10) (Carpenter D. et al. (1998) Proc. Natl. Acad. Sci. USA 95:13630-13634) in FACS buffer (3% FBS in PBS) for 1 h on ice. After washing 3 times in FACS buffer, live cells (sorted by propidium iodide exclusion) were analyzed by flow cytometry in the APC channel using a FACSCalibur (BD Biosciences). Control proteins included His6-Shh, His6-Ihh, HGF β-His639, Trastuzumab (Genentech, Inc.) as a human IgG1 isotype control for Hhip1β12-Fc, and mIgG1 (Molecular Probes Z25105) as a murine Mab control for anti-Shh 5E1 Mab34.

Molecule	binding to Shh in the presence of EDTA ([1]; 10 mM EDTA)	Kd [1]	koff × 10^−4 [1]	kon × 10^3 [1]	IC50 fold higher than Hhip1ECD ([2]; Gli-luciferase co-culture)	IC50 ([2]; Gli-luciferase co-culture)	Shh binding of Hhip1β12 mutants (in words) [1]	inhibitory activity (in words) ([2]; Gli-luciferase co-culture)	maximal inhibition ([2]; at saturating conditions)	Shh binding of Hhip1β12 mutants (in words) ([1]; listed as 1312A)	competition of Shh649 binding to Ptch1 cells (in words) [3]
B1	completely abolished	150 nM	2.3 × 10^−4 [s^−1]	1.5 × 10^3 [M^−1 × s^−1]	about 4 fold	20.3 nM					
B2							inability	retained activity	~85%		
B3		320 nM	4.8 × 10^−4 [s^−1]	1.5 × 10^3 [M^−1 × s^−1]				essentially identical to wildtype Hhip1β12		little effect on Shh	
B4							abrogated binding to Shh	no inhibitory activity			no inhibition
B5		67 nM	7.9 × 10^−4 [s^−1]	1.2 × 10^3 [M^−1 × s^−1]		5.3 nM					
